System: MS2 coat protein
Test: apparent KD of MS2 coat protein; designed switch direction (-1 OFF switch, 1 ON switch): -1; higher = weaker reporter binding
Summary of the method: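 An oligonucleotide input, 200 uM small-molecule ligand, or no input was present during titration of SNAP-549-labelled MS2 coat protein, which was doubled from 0.7 or 1.5 nM to 3 µM. Designed RNA switches had been transcribed on Illumina chips by stalled E. coli RNA polymerase. Apparent KD per design is the median over clusters of curves fitted to normalised cluster fluorescence.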

[1] = input ligand: microRNA oligo, concentration not stated
[2] = Eterna round: R95, input ligand: FMN 200 uM
[3] = Eterna round: R95, input ligand: microRNA oligo, concentration not stated
[4] = Eterna round: R95, input ligand: none

Sequence	apparent KD of MS2 coat protein (input ligand: FMN 200 uM)	apparent KD of MS2 coat protein [1]	apparent KD of MS2 coat protein (input ligand: none)	apparent KD of MS2 coat protein [2]	apparent KD of MS2 coat protein [3]	apparent KD of MS2 coat protein [4]
CUCCGGCCUGUAGGAUAUGGAUCCGAUUAGGAUCCAGAAGGACAUGAGGAUCACCCAUGUACAUGUAAACAGUCAUCACCGGAC [salish99_ExNG1_r04_203] (Eterna round: R96, puzzle: Exclusion NG 1)	23.8 nM	15.2 nM	16.7 nM			
GUGCCGCGAGGAUAUACAGACGGGUCCAAAACGUGUCUCGGACUUGAGGAUCACCCAAGUAGAAGGCGUUUCAG [salish99_ex2_r4_620] (Eterna round: R97, puzzle: Exclusion 2)	18.6 nM		18.4 nM			
AGAGUACAUGAGGAUCACCCAUGUUAGGAUAUGCAUAAUAAGAAGAAGAGAAGAGAGAGCAGAAGGAACAAGAG [Ex 1 M1] (puzzle: Exclusion 1)				42.5 nM	48 nM	57.8 nM
CCUAGUUGGUAAGGAUAUCCUACAUUGUUCUGACCCGGGCAUGCUACAUGAGGAUCACCCAUGUGGGAGAAGGUGCGUCAUCGC [Design 16] (Eterna round: R96, puzzle: Exclusion NG 2)	80.4 nM	55.9 nM	83.4 nM			
UUUAAUUUUUUUUUUUUACAAGCUUUUUGCUCGUCUUAUACAUGAGGAUCACCCAUGUGGGUGAAGGAUAAAUUAUC [JMF 26] (puzzle: Sensor v3, turn-off variant 2)				35.6 nM	36.2 nM	34.3 nM
CUGAGCAGACGGAGAUCCAACAUGAGGAUCACCCAUGUCUCAAAAGCUUUUUGCUCGCCUUAUCCUCCUCUGUUCUC [Ererququce] (puzzle: Sensor v3, turn-off variant 1)				34.8 nM	208 nM	36.6 nM
GCCGGUUAAGUCAGGAUAUACCUAUGGAUACAUAGGUAGAAGGGACAUGAGGAUCACCCAUGUUCCUCAUCGGC [Fiskers BMX 4 - 13] (puzzle: Brourd's mod of Exclusion 4)					13.3 nM	
AAUAAGGGAGGAUAUGCGGAACGGUUUGUUCUCAGUGAGGCACAUGAGGAUCACCCAUGUAGAAGGCCCGGCAA [Orinar] (Eterna round: R96, puzzle: Exclusion 2)	63.4 nM	12.1 nM	17.4 nM			
GAGGUCGCAGGAUAUAGUACAUAGAACAUGAGGAUCACCCAUGUAGCGGGAGGUUCUAUAUUAGAAGGGUGAAGUC [Eternabot (L2) Solution 97] (Eterna round: R97, puzzle: Exclusion 5)	572 nM		494 nM			
UUUUUGUGAGGAUAUCAGUAGUAAAAAAAUAAAAUUACUACUGAGAAGGCACAUGAGGAUCACCCAUGUUCCUU [salish99_ex4_r3_011] (puzzle: Exclusion 4)					14.5 nM	
GAAGUAUGAGUUAGGAUAUGAUGAUUUUUAUUAAAUCAGAAGGAACUUGAGGAUCACCCAAGUAAAGAAUUGGU [JR_BMEx4_Sub070] (Eterna round: R97, puzzle: Brourd's mod of Exclusion 4)	16.1 nM		15.6 nM			
GUUAGACAUGAGGAUCACCCAUGUGAGGAUAUGAUGUGAAUAAAUAAUUAAUUAAGUAUCAGAAGGCACAUAUG [Mat - Mod of Hyphema D32] (puzzle: Exclusion 1)					119 nM	
AAAUUCUGAGGAUAUCGAUGUUUGUACAUGAGGAUCACCCAUGUCCUUUUUAUUUUUUCCCGAGAAGGCAGUGUAU [JR_E5_Sub099] (puzzle: Exclusion 5)					36.6 nM	
AGCUUUGGAGGAUAUUGAGCGGAAAACAUGAGGAUCACCCAUGUAAGUGGGCGAAAUGUAUAAGAAGGCCGAAGGU [Eternabot (L2) Solution 15] (Eterna round: R97, puzzle: Exclusion 5)	205 nM		278 nM			

Reference: the supplement of paper PMC9170038
